B1: 1B6 monoclonal antibody (Binding Molecule A) (antibody, V domains shown)
VH: EVKLVESGGGLVKPGGSLKLSCEASGFTFSRYAMSWVRHTPEKRLAWVASITFGGDPYYPDGLKGRFTISRDNTRNILYLQMNSLRSEDTAMYYCVRHESWFAYWGQGTLVTVSA
VL: DVLMTQTPLSLPVSLGEQVSISCRSSQTIVHTDGNIYLEWYLQNPGQSPRLLIYKISNRFSGVPDRFSGSGSGTDFTLKISRVEAEDLGIYYCFQASHVPYTFGGGTKLEIK
notes: also called 1B6 antibody; 1B6 clone

What was measured:
[1] = molecular target: MSLN isoform 1 (Mesothelin canonical polypeptide) (Homo sapiens (Human)) (UniProt Q13421); assay: flow cytometry on Lenti-X 293T cells transiently expressing MSLN isoform 1 (EGFP-gated)
[2] = molecular target: Mesothelin isoform 2 (IsoMSLN) (Homo sapiens (Human)) (UniProt Q13421); assay: flow cytometry on Lenti-X 293T cells transiently expressing MSLN isoform 2 (EGFP-gated)
[3] = molecular target: T1, Mesothelin isoform 2 (IsoMSLN) (Homo sapiens (Human), UniProt Q13421 37-598); assay: as above
T1 construct: It was transiently expressed in Lenti-X 293T cells and is endogenous on NCI H226 cells; also called MSLN isoform 2; IsoMSLN2
Description: (§1) FIGS. 13A-13C show detection of cell surface expression of MSLN isoform 1 and 2 on the tumor cell surface by anti-isoMSLN-specific antibodies. FIG. 13A: the binding curve of different MSLN antibody clones in MSLN isoform 1 or isoform 2 overexpressing 293T cells. MSLN isoform 1 or 2 were transiently expressed in Lenti-X 293T cells; 48 hrs after transfection the cells were harvested and stained for different anti-MSLN antibody or mIgG1 isotype control (with different antibody concentration). MSLN-expressing cells were gated based on EGFP expression. The antibody binding MFI is plot along with the antibody concentration. FIG. 13B: flow cytometry staining of NCI H226 and Hela tumor cell lines with different anti-MSLN antibody clones. FIG. 13C: binding curve of increasing concentration of anti-IsoMSLN antibody clones to NCI H226 cells. The positive percentage of MSLN is plotted versus the antibody concentration.
(§2) Cell transfection and flow cytometry. […] 3 days after transfection, the transfected cells were harvested, counted, and wash once with FACS buffer, and resuspended in 100 μl FACS buffer containing […] human FcR blocker (BD Bioscience) per 0.1 million cells for 10 min, 4° C. […] Samples were acquired with NovoCyte 3000 and analyzed by NovoExpress (ACEA Biosciences Inc).

[4] = molecular target: MSLN isoform 1 (Mesothelin canonical polypeptide) (Homo sapiens (Human), UniProt Q13421 37-598); assay: flow cytometry on Lenti-X 293T cells transiently expressing MSLN isoform 1
Description: as §1, §2

Chain of Mesothelin isoform 2 (IsoMSLN) (Homo sapiens (Human)) (Q13421 37-606 limits assumed, form in doubt): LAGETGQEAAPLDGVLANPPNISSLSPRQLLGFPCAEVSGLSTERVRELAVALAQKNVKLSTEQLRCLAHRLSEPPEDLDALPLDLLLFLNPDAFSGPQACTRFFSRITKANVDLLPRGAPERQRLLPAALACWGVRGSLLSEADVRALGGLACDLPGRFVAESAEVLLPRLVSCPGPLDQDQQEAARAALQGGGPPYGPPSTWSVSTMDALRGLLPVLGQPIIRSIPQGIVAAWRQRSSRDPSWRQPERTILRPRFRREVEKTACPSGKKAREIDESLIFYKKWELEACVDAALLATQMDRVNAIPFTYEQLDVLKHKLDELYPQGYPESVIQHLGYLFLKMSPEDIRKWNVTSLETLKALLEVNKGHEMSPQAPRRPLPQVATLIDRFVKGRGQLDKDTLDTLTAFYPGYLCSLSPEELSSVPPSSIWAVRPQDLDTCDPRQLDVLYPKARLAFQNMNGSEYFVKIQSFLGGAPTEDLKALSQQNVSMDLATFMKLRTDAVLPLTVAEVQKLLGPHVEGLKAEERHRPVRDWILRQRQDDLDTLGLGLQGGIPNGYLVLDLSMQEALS
T1 sequence (Q13421 37-606 limits assumed, form in doubt): as above
Chain of MSLN isoform 1 (Mesothelin canonical polypeptide) (Homo sapiens (Human)) (Q13421 other isoform, or with tags, fused parts or gaps limits assumed): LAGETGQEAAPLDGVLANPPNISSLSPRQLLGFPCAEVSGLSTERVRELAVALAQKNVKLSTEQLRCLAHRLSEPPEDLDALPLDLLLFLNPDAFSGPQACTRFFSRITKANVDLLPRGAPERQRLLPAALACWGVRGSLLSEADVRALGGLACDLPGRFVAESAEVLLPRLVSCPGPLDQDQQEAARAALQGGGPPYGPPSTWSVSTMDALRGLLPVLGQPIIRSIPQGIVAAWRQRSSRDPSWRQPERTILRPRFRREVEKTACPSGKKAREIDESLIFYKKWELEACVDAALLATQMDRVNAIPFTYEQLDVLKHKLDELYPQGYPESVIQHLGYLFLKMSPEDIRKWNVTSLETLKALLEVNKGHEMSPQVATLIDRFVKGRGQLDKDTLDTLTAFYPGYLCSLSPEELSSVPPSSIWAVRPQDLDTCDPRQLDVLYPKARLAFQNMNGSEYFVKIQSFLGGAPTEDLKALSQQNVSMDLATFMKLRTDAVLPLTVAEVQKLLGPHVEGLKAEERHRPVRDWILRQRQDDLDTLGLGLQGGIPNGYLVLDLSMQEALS
Chain of MSLN isoform 1 (Mesothelin canonical polypeptide) (Q13421 other isoform, or with tags, fused parts or gaps limits assumed): as above

Row | Molecule | EC50 [1] | EC50 [2] | EC50 [3] | binding result [4]
1 | Anti-MSLN mAb clone K1 (antibody) | 0.152 µg/mL | 0.106 µg/mL | – | –
2 | B1 | – | – | 0.073 µg/mL | no binding

From patent publication US20260055368A1 (KIROMIC BIOPHARMA, published 2026)
